# Target: IRSp53 (insulin receptor substrate protein 53), full-length
# Assay: SEC-MALS
substance,measurement,value
"IRSp53 (insulin receptor substrate protein 53), full-length (natural protein)",stoichiometry N,2

# — PMC9280192
